The values below come from article PMC6872938.

For assay [1], the target named is His6-tagged HzTransib transposase (Transib transposase from Helicoverpa zea), residues 17-507 (Helicoverpa zea). The experiment in a line: SEC-MALS. A general note: In gel filtration, larger molecules generally elute earlier.
In assay [2] the target is MBP-tagged HzTransib transposase (Transib transposase from Helicoverpa zea), residues 17-507 (Helicoverpa zea). Put plainly: SEC-MALS.

As a reminder, the stoichiometry N is a count of units in the complex or per binding partner. “His6-tagged HzTransib transposase (Transib transposase from Helicoverpa zea), residues 17-507 (enzyme)” gave a stoichiometry N in assay [1] of 2.
The substance “MBP-tagged HzTransib transposase (Transib transposase from Helicoverpa zea), residues 17-507 (enzyme)” displayed a stoichiometry N in assay [2] of 2.
